Tested on: Escherichia coli TOP10
Assay: shrunken log2 fold change of peptide-encoding DNA abundance (4.5 h post-induction vs induction); higher = less antimicrobial activity (less host growth inhibition)
Conditions: time post-induction: 4.5 h; library: site-saturation at positions 5, 18, 19, 20
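Further: peptides expressed intracellularly from a pBAD plasmid library in pooled LB shake-flask culture, induced with 0.3% L-arabinose, DNA abundance read by NGS, three biological replicates, DESeq2 with apeglm shrinkage.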

Compared with RRIRVRPPRLPRPRPRPEQWPRP, RRIRVRPPRLPRPRPRPERQPRP is higher in “shrunken log2 fold change” value: 0.149 for the first, 0.514 for the second.

Compared with RRIRVRPPRLPRPRPRPESVPRP, RRIRVRPPRLPRPRPRPEVIPRP is lower in “shrunken log2 fold change” value: -0.204 for the first, -0.595 for the second.

First: RRIRVRPPRLPRPRPRPEVPPRP
Second: RRIRVRPPRLPRPRPRPEVTPRP
The “shrunken log2 fold change” value of the first is higher: 0.326 for the first, -0.0717 for the second.

RRIRVRPPRLPRPRPRPEWPPRP and RRIRVRPPRLPRPRPRPEWVPRP are within 0.2 log units of each other in “shrunken log2 fold change” value: 0.225 for the first, 0.23 for the second.

First: RRIRVRPPRLPRPRPRPFACPRP
Second: RRIRVRPPRLPRPRPRPFCGPRP
The “shrunken log2 fold change” value of the first is lower: -0.395 for the first, -0.0559 for the second.

RRIRVRPPRLPRPRPRPFCKPRP and RRIRVRPPRLPRPRPRPFCSPRP are within 0.2 log units of each other in “shrunken log2 fold change” value: -0.144 for the first, 0.0261 for the second.

RRIRVRPPRLPRPRPRPFEKPRP and RRIRVRPPRLPRPRPRPFEQPRP are within 0.2 log units of each other in “shrunken log2 fold change” value: -0.00236 for the first, 0.162 for the second.

Compared with RRIRVRPPRLPRPRPRPFFGPRP, RRIRVRPPRLPRPRPRPFFNPRP is lower in “shrunken log2 fold change” value: -0.0414 for the first, -0.32 for the second.

RRIRVRPPRLPRPRPRPFFTPRP and RRIRVRPPRLPRPRPRPFGKPRP are within 0.2 log units of each other in “shrunken log2 fold change” value: 0.00087 for the first, -0.151 for the second.

First: RRIRVRPPRLPRPRPRPFIIPRP
Second: RRIRVRPPRLPRPRPRPFKDPRP
The “shrunken log2 fold change” value of the first is lower: -0.442 for the first, -0.166 for the second.

RRIRVRPPRLPRPRPRPFKEPRP and RRIRVRPPRLPRPRPRPFKNPRP are within 0.2 log units of each other in “shrunken log2 fold change” value: 0.121 for the first, -0.055 for the second.

Going from RRIRVRPPRLPRPRPRPFKSPRP to RRIRVRPPRLPRPRPRPFLDPRP, the “shrunken log2 fold change” value falls from 0.0446 to -0.187.

First: RRIRVRPPRLPRPRPRPFLQPRP
Second: RRIRVRPPRLPRPRPRPFMKPRP
The “shrunken log2 fold change” value of the first is higher: 0.15 for the first, -0.737 for the second.

First: RRIRVRPPRLPRPRPRPFNKPRP
Second: RRIRVRPPRLPRPRPRPFNLPRP
The “shrunken log2 fold change” value of the first is higher: 0.791 for the first, -0.103 for the second.

Compared with RRIRVRPPRLPRPRPRPFNTPRP, RRIRVRPPRLPRPRPRPFSQPRP is lower in “shrunken log2 fold change” value: 2.64 for the first, -0.0697 for the second.

RRIRVRPPRLPRPRPRPFTLPRP and RRIRVRPPRLPRPRPRPFTQPRP are within 0.2 log units of each other in “shrunken log2 fold change” value: -0.104 for the first, 0.0152 for the second.

First: RRIRVRPPRLPRPRPRPFVGPRP
Second: RRIRVRPPRLPRPRPRPFVYPRP
The “shrunken log2 fold change” value of the first is higher: -0.0757 for the first, -0.439 for the second.

RRIRVRPPRLPRPRPRPFYNPRP and RRIRVRPPRLPRPRPRPFYPPRP are within 0.2 log units of each other in “shrunken log2 fold change” value: -0.565 for the first, -0.441 for the second.

First: RRIRVRPPRLPRPRPRPFYSPRP
Second: RRIRVRPPRLPRPRPRPGCDPRP
The “shrunken log2 fold change” value of the first is lower: -0.3 for the first, 0.952 for the second.

RRIRVRPPRLPRPRPRPGDMPRP and RRIRVRPPRLPRPRPRPGDSPRP are within 0.2 log units of each other in “shrunken log2 fold change” value: -0.136 for the first, -0.0395 for the second.

RRIRVRPPRLPRPRPRPGELPRP and RRIRVRPPRLPRPRPRPGFTPRP are within 0.2 log units of each other in “shrunken log2 fold change” value: -0.0483 for the first, -0.143 for the second.

RRIRVRPPRLPRPRPRPGGMPRP and RRIRVRPPRLPRPRPRPGGPPRP are within 0.2 log units of each other in “shrunken log2 fold change” value: 0.0665 for the first, 0.0704 for the second.

Going from RRIRVRPPRLPRPRPRPGGTPRP to RRIRVRPPRLPRPRPRPGGWPRP, the “shrunken log2 fold change” value rises from 0.0237 to 0.72.

First: RRIRVRPPRLPRPRPRPGHCPRP
Second: RRIRVRPPRLPRPRPRPGHDPRP
The “shrunken log2 fold change” value of the first is higher: 0.258 for the first, -0.116 for the second.

RRIRVRPPRLPRPRPRPGKDPRP and RRIRVRPPRLPRPRPRPGKQPRP are within 0.2 log units of each other in “shrunken log2 fold change” value: 0.114 for the first, 0.0812 for the second.

First: RRIRVRPPRLPRPRPRPGMSPRP
Second: RRIRVRPPRLPRPRPRPGNDPRP
The “shrunken log2 fold change” value of the first is higher: 0.303 for the first, -0.0387 for the second.

RRIRVRPPRLPRPRPRPGNTPRP and RRIRVRPPRLPRPRPRPGNYPRP are within 0.2 log units of each other in “shrunken log2 fold change” value: -0.113 for the first, -0.162 for the second.

First: RRIRVRPPRLPRPRPRPGPPPRP
Second: RRIRVRPPRLPRPRPRPGPVPRP
The “shrunken log2 fold change” value of the first is higher: 0.564 for the first, 0.287 for the second.

RRIRVRPPRLPRPRPRPGQWPRP and RRIRVRPPRLPRPRPRPGSIPRP are within 0.2 log units of each other in “shrunken log2 fold change” value: 0.0407 for the first, 0.00983 for the second.

RRIRVRPPRLPRPRPRPGSQPRP and RRIRVRPPRLPRPRPRPGTYPRP are within 0.2 log units of each other in “shrunken log2 fold change” value: -0.11 for the first, -0.166 for the second.

First: RRIRVRPPRLPRPRPRPGWTPRP
Second: RRIRVRPPRLPRPRPRPHCNPRP
The “shrunken log2 fold change” value of the first is higher: 0.202 for the first, -0.408 for the second.

RRIRVRPPRLPRPRPRPHDEPRP and RRIRVRPPRLPRPRPRPHDRPRP are within 0.2 log units of each other in “shrunken log2 fold change” value: 0.0655 for the first, 0.068 for the second.

RRIRVRPPRLPRPRPRPHEEPRP and RRIRVRPPRLPRPRPRPHEFPRP are within 0.2 log units of each other in “shrunken log2 fold change” value: 0.0138 for the first, -0.0515 for the second.

RRIRVRPPRLPRPRPRPHELPRP and RRIRVRPPRLPRPRPRPHESPRP are within 0.2 log units of each other in “shrunken log2 fold change” value: 0.118 for the first, 0.22 for the second.

Going from RRIRVRPPRLPRPRPRPHFDPRP to RRIRVRPPRLPRPRPRPHFMPRP, the “shrunken log2 fold change” value rises from 0.0221 to 1.55.

Going from RRIRVRPPRLPRPRPRPHGKPRP to RRIRVRPPRLPRPRPRPHHNPRP, the “shrunken log2 fold change” value rises from -0.389 to 0.192.

First: RRIRVRPPRLPRPRPRPHHVPRP
Second: RRIRVRPPRLPRPRPRPHIQPRP
The “shrunken log2 fold change” value of the first is higher: -0.261 for the first, -0.528 for the second.

First: RRIRVRPPRLPRPRPRPHKNPRP
Second: RRIRVRPPRLPRPRPRPHKYPRP
The “shrunken log2 fold change” value of the first is higher: -0.301 for the first, -0.725 for the second.

RRIRVRPPRLPRPRPRPHLGPRP and RRIRVRPPRLPRPRPRPHLHPRP are within 0.2 log units of each other in “shrunken log2 fold change” value: -0.132 for the first, -0.279 for the second.

RRIRVRPPRLPRPRPRPHLKPRP and RRIRVRPPRLPRPRPRPHLVPRP are within 0.2 log units of each other in “shrunken log2 fold change” value: -0.284 for the first, -0.133 for the second.

RRIRVRPPRLPRPRPRPHMNPRP and RRIRVRPPRLPRPRPRPHMSPRP are within 0.2 log units of each other in “shrunken log2 fold change” value: -0.499 for the first, -0.405 for the second.

First: RRIRVRPPRLPRPRPRPHPYPRP
Second: RRIRVRPPRLPRPRPRPHRPPRP
The “shrunken log2 fold change” value of the first is lower: -1.08 for the first, -0.243 for the second.

RRIRVRPPRLPRPRPRPHRWPRP and RRIRVRPPRLPRPRPRPHSCPRP are within 0.2 log units of each other in “shrunken log2 fold change” value: 0.0461 for the first, -0.0621 for the second.

Compared with RRIRVRPPRLPRPRPRPHSQPRP, RRIRVRPPRLPRPRPRPHTIPRP is lower in “shrunken log2 fold change” value: 0.288 for the first, -0.487 for the second.

RRIRVRPPRLPRPRPRPHVDPRP and RRIRVRPPRLPRPRPRPHVIPRP are within 0.2 log units of each other in “shrunken log2 fold change” value: 0.0108 for the first, -0.0921 for the second.

First: RRIRVRPPRLPRPRPRPHWAPRP
Second: RRIRVRPPRLPRPRPRPHWCPRP
The “shrunken log2 fold change” value of the first is higher: 0.142 for the first, -0.144 for the second.

RRIRVRPPRLPRPRPRPHWQPRP and RRIRVRPPRLPRPRPRPHYCPRP are within 0.2 log units of each other in “shrunken log2 fold change” value: -0.024 for the first, -0.186 for the second.

First: RRIRVRPPRLPRPRPRPIACPRP
Second: RRIRVRPPRLPRPRPRPIAHPRP
The “shrunken log2 fold change” value of the first is higher: 0.0889 for the first, -0.126 for the second.

First: RRIRVRPPRLPRPRPRPICIPRP
Second: RRIRVRPPRLPRPRPRPICLPRP
The “shrunken log2 fold change” value of the first is lower: -0.449 for the first, 0.0369 for the second.

RRIRVRPPRLPRPRPRPIEDPRP and RRIRVRPPRLPRPRPRPIFKPRP are within 0.2 log units of each other in “shrunken log2 fold change” value: -0.0208 for the first, -0.0901 for the second.

Going from RRIRVRPPRLPRPRPRPIFQPRP to RRIRVRPPRLPRPRPRPIITPRP, the “shrunken log2 fold change” value falls from -0.052 to -0.844.

RRIRVRPPRLPRPRPRPILKPRP and RRIRVRPPRLPRPRPRPIMQPRP are within 0.2 log units of each other in “shrunken log2 fold change” value: -0.203 for the first, -0.149 for the second.

Going from RRIRVRPPRLPRPRPRPIPTPRP to RRIRVRPPRLPRPRPRPIRPPRP, the “shrunken log2 fold change” value falls from 0.191 to -0.0154.

Compared with RRIRVRPPRLPRPRPRPISPPRP, RRIRVRPPRLPRPRPRPISYPRP is lower in “shrunken log2 fold change” value: 0.129 for the first, -0.158 for the second.

In the case of RRIRVRPPRLPRPRPRPITIPRP, the “shrunken log2 fold change” value was -0.0236.

From the supplement of paper PMC9112550, “Optimization of the antimicrobial peptide Bac7 by deep mutational scanning” (BMC Biology, 2022)
